Measurements from the nanobody polyreactivity screen of Harvey et al. (2022).

Experiment: yeast display, Sf9 membrane polyspecificity reagent, FACS + sequencing; frameworks hold sequencing errors
How it was run: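 Using colony PCR, genes from sorted yeast display clones were amplified, then sequenced on MiSeq at 2 × 250 and filtered by CDR length. The clones had been stained with 10% biotinylated, detergent-solubilized Sf9 membrane reagent for 1 hour at 4 °C and sorted by FACS into low and high (top ~1%) gates on anti-HA and streptavidin fluorescence. Polyreactivity labels come from the gate of origin.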

| Sequence | polyreactivity (PSR sort gate) |
| --- | --- |
| QVQLVESGGGLVQAGGSLRLSCASSGSIFQYNAMGWYRQAPGKERELVAAINGGGSTYYADSVRGRFTISRDNAKNTVYLQMNSLKPEDTAVYYCAARHGESHYDYWGQGTQVTVSS | low polyreactivity |
| QVQLVESGGGLVQAGGSLRLSCASSGSIFVTYTMGWYRQAPGKERELVATISGGSSTYADSVKGRFTISRDNAKNTVYLQMNSLKPEDTAVYYCNAVWYFKPPPLYYIPYRQYDYWGQGTQVTVSS | low polyreactivity |
| QVQLVESGGGLVQAGGSLRLSCASSGSIFYVNTMGWYRQAPGKERELVATISVSGGSTNYADSVKGRFTISRDNAKNTVYFQMNSLKPEDTAVYYCAEAYLRYYDGPYDYWGQGTQVTVSS | low polyreactivity |
| QVQLVESGGGLVQAGGSLRLSCASSGSIGYYAMGWYRQAPGKERELVAAIDWSGGDTYYADSVKGRFTISRDNAKNTVYLQMNSLKPEDTAVYYCAADAGRYLPDCTYDYWGQGTQVTVSS | low polyreactivity |
| QVQLVESGGGLVQAGGSLRLSCASSGSILYVYAMGWYRQAPGKERELVAAISTSGVSTYYADSVKGRFTISRDNAKNTVYLQMNSLKPEDTAVYYCAATVSRGFYSWWYDYWGQGTQVTVSS | low polyreactivity |
| QVQLVESGGGLVQAGGSLRLSCASSGSTFAPNAMGWYSQAPGKEREFVAAITYRGSSTYYADSVKGRFTISRDNAKNTVYLQMNSLKPEDTAVYYCAADYVEYKVRSYDYWGQGTQVTVSS | low polyreactivity |
| QVQLVESGGGLVQAGGSLRLSCASSGSTFSSYAMGRYRQAPGKERELVAAITRGGSTNYADSVKGRFTISRDNAKNTVYLQMNSLKPEYTAVYYCAADGPIVGTMDYWGQGTQVTVSS | high polyreactivity |
| QVQLVESGGGLVQAGGSLRLSCASSGSTFTGNAMGWYRQAPGKERELVAAISYRGVSTSYADSVKGRFTISRDNAKNTVYLQMNSLKPEDTAVYYCAKRRSLVRSIPFDSWGQGTQVTVSS | low polyreactivity |
| QVQLVESGGGLVQAGGSLRLSCASSGSTFWFYAMGWYRQAPGKERELVAAITRSAGSTYYADSVKGRFTISRDNAKNTVYLQMNSLKPEGTAVYYCAAQRESLYGGFDYWGQGTQVTVSS | low polyreactivity |
| QVQLVESGGGLVQAGGSLRLSCASSGSTFYNNALGWYRQAPGKERELVAAISNVSTYYADSVKGRFTISRDNAKNTVYLQLISLKPEDTAVYYCAARGLLWYYSWRYYFWGQGTQVTVSS | low polyreactivity |
| QVQLVESGGGLVQAGGSLRLSCASSGSTFYPNAMGWYRQAPGKERELVAAISRSGGSTYYADSVKGRFTISRDNAKNTVYLQMNSLKPEDTGVYYCAADGRSPSRYDYWGQGTQVTVSS | low polyreactivity |
| QVQLVESGGGLVQAGGSLRLSCASSGSTFYRYAMGWYRQAPGKERELVARINTGGSTSYAYSVKGRFTISRDNAKNTVYLQKNSLKPVDTAVYYCAASSRYAVFGRYYYWGQGTQVTVSS | high polyreactivity |
| QVQLVESGGGLVQAGGSLRLSCASSGSTFYSYVMGWYRQAPGKERELVAVISNDGSTNYADSVKGRFTISRDNAKNSVYLQMNSLKPEDTAVYYCDALKFVRAYRYYYWGQGTQVTVSS | low polyreactivity |
| QVQLVESGGGLVQAGGSLRLSCASSGSTFYTNAMGWYRQAPGKERELVAGISSGGSTYYADSVKARFTISRDNAKNTVYLQINSLKPEDTAVYYCAAVERTRYWEFYYWGQGTQVIVSS | high polyreactivity |
| QVQLVESGGGLVQAGGSLRLSCASYGYTFFNYAKGWYRQAPGKERELVAAITTGGSTYYADSVKGRFTISRDNAKNTVYLQMNSLKPEDTAVYYCPFDYWGQGTQVTVSS | high polyreactivity |
| QVQLVESGGGLVQAGGSLRLSCATSGFIFSLYAMGWYRQAPGKERELVAAINWNGGRTYYADSVKGRFTISRDNAKNTVYLQMDSLKPEDTAVYYCATRSGSYSYPAVGGWGLGYWGQGTQVTVSS | high polyreactivity |
| QVQLVESGGGLVQAGGSLRLSCATSGSIFYRYAMGWYRQAPGKEREFVAAIRWRGGSTYYADSVKGRFTISRDNAKNTVYLQMNSLKPEDTAVYYCAAPTVQSYNYWGQGTQVTVSS | high polyreactivity |
| QVQLVESGGGLVQAGGSLRLSCAVSGRIFRRNVMGWSRPAPGKERALVAGSSYSGDSTYYADSVKGRFTISRDNAKNTVYLQMNSLKPEDTAVYYCAAALAHYRGMYYWGQGTQVTVSS | low polyreactivity |
| QVQLVESGGGLVQAGGSLRLSCAVSGRIFRRNVMGWYRQAPGKERELVAGSSYSGDSTYYADSVKGRFTISRDNAKNTVYLQMNRLKPEDTAVYYCAAALAHYRGMYYWGQGTQVTVSS | high polyreactivity |
| QVQLVESGGGLVQAGGSLRLSCCASGFTFIVYSMGWYRQSPGKERELVAAITQSGGSTFYADSVKGRFTISRDNAKNTVYLQMNSLKPEDTAVYYCNAYRKFRYWGQGTQVTVSS | low polyreactivity |
| QVQLVESGGGLVQAGGSLRLSCCASGRTFLDNALGWYRQAPGKERQLVAAISGGGGTYYADSVKGRFTISRDNAKNTVYLQMNSLKPEDTAVYYCATDRGHKWVFYVTYYRYESWGQGTQVTVSS | low polyreactivity |
| QVQLVESGGGLVQAGGSLRLSCDASGFIFYSYAMGWYRQAPGKERELVAGITSGGITSYADSVKGRFTISRDNAKNTVYLQMNSLKPEDTAVYYCAKDVRSYRISVYGVGYWGQGTQVTVSS | high polyreactivity |
| QVQLVESGGGLVQAGGSLRLSCDASGFNFASNDMGWYRPAPGKERELVAAITKGGGRTYYADSVKGRFTISRDNAKNTVYLQMNSLKPEDTAVYYCAARQLIKYDYWGQGTQVTVSS | low polyreactivity |
| QVQLVESGGGLVQAGGSLRLSCDASGFTFYSYARGWYRQAPGKEREFVASISRSGGSTYYADSVKGRFTISRDNAKYTVYLQMNSLKAEDTEVYYCAARSVRDRDGGDYWGQGTQVTVSS | high polyreactivity |
| QVQLVESGGGLVQAGGSLRLSCDASGGIFFYNTLRCSRQAPGKERELVAAITTNGDSTYYADSVKGRFTISRDNAKYTVYLQMNSLKPVDTAVYYCATPLELFASFSFSHYVYLFDSWGQGTQVNVSS | low polyreactivity |
| QVQLVESGGGLVQAGGSLRLSCDASGIIFKKYAMGWNRQAPGKERELVAVITRGGSTNYADSVKGRFTISRDNAKNTVYLQMNSLKPEDTAVYYCNADSGSYHGWYGGDYGGQGTQVTVSS | low polyreactivity |
| QVQLVESGGGLVQAGGSLRLSCDASGIILNINAMGWYRQAPGKERELVAAITSDGSTNYADSVKGRFTISRDNAKNTVYLQMNSLKPEDTAVYYCAVDLPWGTGVSQYPESDYWGQGTQVTVSS | low polyreactivity |
| QVQLVESGGGLVQAGGSLRLSCDASGITFASYAMGWYRQAPGKERELVAAISWGGSRTYYADSVKGRFTISRDNAKNTVYFQMNSLKPVDTAVYYCNAHTRYGPDYSYYYWGQGTQVTVSS | high polyreactivity |
| QVQLVESGGGLVQAGGSLRLSCDASGITFIRNGMGWYRQAPGKERELVAAISDTGARTYYADSVKGRFTISRDNAKNTVYLQMNSLKPEDTAVYYCAAEVRTRYLYSFRWDDYWGQGTQVTVSS | low polyreactivity |
| QVQLVESGGGLVQAGGSLRLSCDASGITFQYYAMGWYRQAPGKERELVAAINWRGGTTYYADSVKGRITISRDNAKNTVYLQMNSLIPEDNEVYYCAADYYYQAGFYYWGQGTQVTVSS | low polyreactivity |
